Consider 2 molecules from patent US20180142007A1 (AXON NEUROSCIENCE, published 2018).

Some results are limits rather than exact numbers.

The target of assay [1] is T1, misdisordered truncated tau 151-391/4R (human, UniProt P10636 468-708).
T1 construct: Recombinant, from clone tau40 in pET-17b, expressed in E. coli; numbered on the longest human tau isoform 2N4R (441 aa); An added start methionine is not mentioned; also called tauΔ(1-150;392-441)/4R; misdisordered tau II
In words: binding ELISA, plate coated with Tau 151-391/4R. A general note: In an ELISA, binding on a coated surface is turned into a signal by an enzyme label.

Assay [2] has as its target T1, misdisordered truncated tau 151-391/4R. Nature of the assay: SPR Biacore T200, antibody captured by anti-IgG on CM5 chip, tau 151-391/4R as analyte, steady state analysis. The method, then:
Antibody affinity determination was carried out by SPR analysis using a Biacore T200. Anti-human IgG (GE Healthcare, cat. no. BR-1008-39) or anti-murine IgG (GE Healthcare, cat. no. BR-1008-38) was covalently immobilized to a CM5 chip (Cat. no. BR-1005-30) to the point of saturation and in accordance with the manufacturer's instructions. […] Association time was set at 150 sec and disassociation time 300 sec. Tau concentrations were chosen empirically in order to obtain curvature during the association phase. The kinetics of binding/dissociation was initially analyzed according to the 1:1 interaction model using BIAcore T200 evaluation software package 2.0.

For assay [3] the target is unchanged. Nature of the assay: cell-based or functional assay.
The next assay has as its target T2, tau peptide 282-311 (human).
T2 construct: Synthetic peptide (EZBiolabs), numbered on tau 2N4R; also called peptide derived from MTBRII
T2 peptide: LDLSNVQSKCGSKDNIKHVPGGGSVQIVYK
Nature of the assay: direct ELISA, tau peptide coated on plate.

T1 sequence (P10636 468-708): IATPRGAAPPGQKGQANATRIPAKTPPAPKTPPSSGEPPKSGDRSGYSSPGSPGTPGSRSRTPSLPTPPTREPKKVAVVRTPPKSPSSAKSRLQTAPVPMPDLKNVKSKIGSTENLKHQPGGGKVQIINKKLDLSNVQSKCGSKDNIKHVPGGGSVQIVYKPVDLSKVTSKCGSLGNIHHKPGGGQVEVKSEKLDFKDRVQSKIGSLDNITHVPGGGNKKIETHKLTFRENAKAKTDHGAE

B1: AX002, humanized DC8E8 RHB/RKA (isotype not stated where tested) (antibody)
VH: QVQLVQSGPEVKKPGSSVKVPCKASGYIFTDYVISWVKQAPGQGLEWIGEIFPRSGSTYYNEKFKGKATLTADKSTSTAYMELSSLRSEDTAVYFCARDYYGTSFAMDYWGQGTLVTVSS
light: DIVMTQSPLSLPVTPGEPASISCKSSQSLLNSRTRKNYLAWYLQKPGQSPQLLIYWASTRESGVPDRFTGSGSGTDFTLKISRVEAEDVGVYYCKQSFYLRTFGQGTKVEIKRTVAAPSVFIFPPSDEQLKSGTASVVCLLNNFYPREAKVQWKVDNALQSGNSQESVTEQDSKDSTYSLSSTLTLSKADYEKHKVYACEVTHQGLSSPVTKSFNRGEC
Consider B1, for which the binding result in assay [1] is reported as “binds”.

B2: mouse monoclonal antibody DC8E8 (antibody, mouse IgG1)
heavy: QVQLQQSGPELVKPGTSVKMPCKASGYIFTDYVISWVKQRTGQGLEWIGEIFPRSGSTYYNEKFKGKATLTADKSSNTAYMQLSSVTSEDSAVYFCARDYYGTSFAMDYWGQGTSVTVSSAKTTPPSVYPLAPGSAAQTNSMVTLGCLVKGYFPEPVTVTWNSGSLSSGVHTFPAVLQSDLYTLSSSVTVPSSTWPSQTVTCNVAHPASSTKVDKKIVPRDCGCKPCICTVPEVSSVFIFPPKPKDVLTITLTPKVTCVVVDISKDDPEVQFSWFVDDVEVHTAQTKPREEQINSTFRSVSELPIMHQDWLNGKEFKCRVNSAAFPAPIEKTISKTKGRPKAPQVYTIPPPKEQMAKDKVSLTCMITNFFPEDITVEWQWNGQPAENYKNTQPIMDTDGSYFVYSKLNVQKSNWEAGNTFTCSVLHEGLHNHHTEKSLSHSPGK
VL: DIVMSQSPSSLAVSAGEKVTMSCKSSQSLLNSRTRKNYLAWYQQKPGQSPKLLIYWASTRESGVPDRFTGSGSGTDFTLTISSVQAEDLAVYYCKQSFYLRTFGGGTKLDIK
notes: also called murine DC8E8; mouse DC8E8
With B2, the Kd – broadly, the free concentration of one partner at which half of the binding sites on the other are occupied at equilibrium, for simple one-to-one binding – in assay [2] was around 10 nM. The “amount of fibrillized pathological tau forms (Thioflavin T fluorescence), antibody at 10 uM” value in assay [3] is below 4.7%. In addition, in the assay with tau peptide 282-311, the binding result was “binds”.
